# T1: GST-occludin 383–522 S408A (human, UniProt Q16625 383-522, S408A)
# T1 sequence: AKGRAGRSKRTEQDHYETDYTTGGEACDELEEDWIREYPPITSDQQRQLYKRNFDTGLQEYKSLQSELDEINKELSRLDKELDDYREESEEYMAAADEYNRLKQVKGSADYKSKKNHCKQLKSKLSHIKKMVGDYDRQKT
# Target: T1, GST-occludin 383–522 S408A
# Experiment: pull-down
binder,measurement,value
VSV G epitope-tagged human ZO-1 U5-GuK domain construct (residues 591–754) (domain or fragment) PKTAGGDRADFWRFRGLRSSKRNLRKSREDLSAQPVQTKFPAYERVVLREAGFLRPVTIFGPIADVAREKLAREEPDIYQIAKSEPRDAGTDQRSSGIIRLHTIKQIIDQDKHALLDVTPNAVDRLNYAQWYPIVVFLNPDSKQGVKTMRMRLCPESRKSARKL,fold binding relative to the S408D mutant,3.2 fold

# Source: paper PMC3087007 (The Journal of Cell Biology, 2011)
